Results from patent US20220363778A1 (RESEARCH FOUNDATION FOR THE STATE UNIVERSITY OF NEW YORK, published 2022).

Key:
[1] = target: T1, mouse serum albumin (MSA) (MyBioSource, MBS135633) (mouse, UniProt P07724 25-608, limits assumed); assay: SPR, mouse serum albumin immobilised on the chip, 2Rb17c-ColH-ABD injected at 7.5-75 nM, 10 min dissociation, 1:1 Langmuir fit in Scrubber
T1 construct: Immobilised on the SPR chip for kinetics
Method: (§1) Surface plasmon resonance (SPR) was performed using a Reichert SR7500DC SPR and SR8100 autosampler (Reichert, Depew, N.Y.). HER2-Fc (Sino Biological, Beijing, China, 10004-H02H) or mouse serum albumin (MSA) (MyBioSource, San Diego, Calif., MBS135633) was immobilized onto a carboxymethyl dextran SPR chip (Reichert, Depew, N.Y., 13206066) using 1-Ethyl-3-(3-dimethylaminopropyl)carbodiimide/N-hydroxysuccinimide linker chemistry. A mobile phase of PBS 0.05% Tween-20 at a flow rate of 25 μL/min was used for all binding evaluations. Fusion protein dilutions were injected for 90 seconds, and the chip regenerated following dissociation with a 2-minute injection of a 10 millimolar (mM) glycine buffer pH 1.5. […] The observed sensor-grams were fit to a 1:1 Langmuir binding model in the Scrubber analysis software to obtain the association rate constant (kon), dissociation rate constant (koff), and the equilibrium dissociation constant (KD).

[2] = target: T2, HER2-Fc (Sino Biological, 10004-H02H) (UniProt P04626 23-652); assay: SPR, HER2-Fc immobilised, 1:1 Langmuir fit
T2 construct: Bought reagent, immobilised on a carboxymethyl dextran SPR chip by EDC/NHS; not shown: Fc portion of the bought reagent

[3] = target: T1, mouse serum albumin (MSA) (MyBioSource, …); assay: SPR, mouse serum albumin immobilised on the chip, 2Rs15d-ColH-ABD injected at 7.5-60 nM, 10 min dissociation, 1:1 Langmuir fit in Scrubber
Method: as §1

[4] = target: T1, mouse serum albumin (MSA) (MyBioSource, …); assay: SPR, mouse serum albumin injected at about 400 s over 2Rs15d-ColH held on a HER2-Fc chip
From the text: Surface plasmon resonance was used to assess HER2 and MSA binding.

B1: 2Rb17c-ColH-ABD fusion protein (other)
chain: QVQLQESGGGLVQPGGSLRLSCAASGFIFSNDAMTWVRQAPGKGLEWVSSINWSGTHTNYADSVKGRFTISRDNAKRTLYLQMNSLKDEDTALYYCVTGYGVTKTPTGQGTQVTVSSGGGSGGGSGGGSVQNESKRYTVSYLKTLNYYDLVDLLVKTEIENLPDLFQYSSDAKEFYGNKTRMSFIMDEIGRRAPQYTEIDHKGIPTLVEVVRAGFYLGFHNKELNEINKRSFKERVIPSILAIQKNPNFKLGTEVQDKIVSATGLLAGNETAPPEVVNNFTPILQDCIKNIDRYALDDLKSKALFNVLAAPTYDITEYLRATKEKPENTPWYGKIDGFINELKKLALYGKINDNNSWIIDNGIYHIAPLGKLHSNNKIGIETLTEVMKVYPYLSMQHLQSADQIKRHYDSKDAEGNKIPLDKFKKEGKEKYCPKTYTFDDGKVIIKAGARVEEEKVKRLYWASKEVNSQFFRVYGIDKPLEEGNPDDILTMVIYNSPEEYKLNSVLYGYDTNNGGMYIEPEGTFFTYEREAQESTYTLEELFRHEYTHYLQGRYAVPGQWGRTKLYDNDRLTWYEEGGAELFAGSTRTSGILPRKSIVSNIHNTTRNNRYKLSDTVHSKYGASFEFYNYACMFMDYMYNKDMGILNKLNDLAKNNDVDGYDNYIRDLSSNYALNDKYQDHMQERIDNYENLTVPFVADDYLVRHAYKNPNEIYSEISEVAKLKDAKSEVKKSQYFSTFTLRGSYTGGASKGKLEDQKAMNKFIDDSLKKLDTYSWSGYKTLTAYFTNYKVDSSNRVTYDVVFHGYLPNEGDSKNSLPYGKINGTYKGTEKEKIKFSSEGSFDPDGKIVSYEWDFGDGNKSNEENPEHSYDKVGTYTVKLKVTDDKGESSVSTTTAEIKDLSENKLPVIYMHVPKSGALNQKVVFYGKGTYDPDGSIAGYQWDFGDGSDFSSEQNPSHVYTKKGEYTVTLRVMDSSGQMSEKTMKIKITDPVYPIGTEKEPNNSKETASGPIVPGIPVSGTIENTSDQDYFYFDVITPGEVKIDINKLGYGGATWVVYDENNNAVSYATDDGQNLSGKFKADKPGRYYIHLYMFNGSYMPYRINIEGGGSGGGSLEVLFQGPGGGSLAEAKVLANRELDKYGVSDFYKRLINKAKTVEGVEALKLHILAALPHHHHHH
Kd [1]: 1.6 nM
Kd [2]: 17.1 nM

B2: 2Rs15d-ColH-ABD fusion protein (other)
chain: QVQLQESGGGSVQAGGSLKLTCAASGYIFNSCGMGWYRQSPGRERELVSRISGDGDTWHKESVKGRFTISQDNVKKTLYLQMNSLKPEDTAVYFCAVCYNLETYWGQGTQVTVSSGGGSGGGSGGGSVQNESKRYTVSYLKTLNYYDLVDLLVKTEIENLPDLFQYSSDAKEFYGNKTRMSFIMDEIGRRAPQYTEIDHKGIPTLVEVVRAGFYLGFHNKELNEINKRSFKERVIPSILAIQKNPNFKLGTEVQDKIVSATGLLAGNETAPPEVVNNFTPILQDCIKNIDRYALDDLKSKALFNVLAAPTYDITEYLRATKEKPENTPWYGKIDGFINELKKLALYGKINDNNSWIIDNGIYHIAPLGKLHSNNKIGIETLTEVMKVYPYLSMQHLQSADQIKRHYDSKDAEGNKIPLDKFKKEGKEKYCPKTYTFDDGKVIIKAGARVEEEKVKRLYWASKEVNSQFFRVYGIDKPLEEGNPDDILTMVIYNSPEEYKLNSVLYGYDTNNGGMYIEPEGTFFTYEREAQESTYTLEELFRHEYTHYLQGRYAVPGQWGRTKLYDNDRLTWYEEGGAELFAGSTRTSGILPRKSIVSNIHNTTRNNRYKLSDTVHSKYGASFEFYNYACMFMDYMYNKDMGILNKLNDLAKNNDVDGYDNYIRDLSSNYALNDKYQDHMQERIDNYENLTVPFVADDYLVRHAYKNPNEIYSEISEVAKLKDAKSEVKKSQYFSTFTLRGSYTGGASKGKLEDQKAMNKFIDDSLKKLDTYSWSGYKTLTAYFTNYKVDSSNRVTYDVVFHGYLPNEGDSKNSLPYGKINGTYKGTEKEKIKFSSEGSFDPDGKIVSYEWDFGDGNKSNEENPEHSYDKVGTYTVKLKVTDDKGESSVSTTTAEIKDLSENKLPVIYMHVPKSGALNQKVVFYGKGTYDPDGSIAGYQWDFGDGSDFSSEQNPSHVYTKKGEYTVTLRVMDSSGQMSEKTMKIKITDPVYPIGTEKEPNNSKETASGPIVPGIPVSGTIENTSDQDYFYFDVITPGEVKIDINKLGYGGATWVVYDENNNAVSYATDDGQNLSGKFKADKPGRYYIHLYMFNGSYMPYRINIEGGGSGGGSLEVLFQGPGGGSLAEAKVLANRELDKYGVSDFYKRLINKAKTVEGVEALKLHILAALPHHHHHH
notes: The text says (G4S)3 linkers and a TEV site; also called 2Rs15d-ColH-ABD035
Kd [3]: 1.5 nM

B3: 2Rs15d-ColH fusion protein (2Rs15d-Clostridial Collagenase H fusion protein) (other)
chain: QVQLQESGGGSVQAGGSLKLTCAASGYIFNSCGMGWYRQSPGRERELVSRISGDGDTWHKESVKGRFTISQDNVKKTLYLQMNSLKPEDTAVYFCAVCYNLETYWGQGTQVTVSSGGGGSGGGGSGGGGSVQNESKRYTVSYLKTLNYYDLVDLLVKTEIENLPDLFQYSSDAKEFYGNKTRMSFIMDEIGRRAPQYTEIDHKGIPTLVEVVRAGFYLGFHNKELNEINKRSFKERVIPSILAIQKNPNFKLGTEVQDKIVSATGLLAGNETAPPEVVNNFTPILQDCIKNIDRYALDDLKSKALFNVLAAPTYDITEYLRATKEKPENTPWYGKIDGFINELKKLALYGKINDNNSWIIDNGIYHIAPLGKLHSNNKIGIETLTEVMKVYPYLSMQHLQSADQIKRHYDSKDAEGNKIPLDKFKKEGKEKYCPKTYTFDDGKVIIKAGARVEEEKVKRLYWASKEVNSQFFRVYGIDKPLEEGNPDDILTMVIYNSPEEYKLNSVLYGYDTNNGGMYIEPEGTFFTYEREAQESTYTLEELFRHEYTHYLQGRYAVPGQWGRTKLYDNDRLTWYEEGGAELFAGSTRTSGILPRKSIVSNIHNTTRNNRYKLSDTVHSKYGASFEFYNYACMFMDYMYNKDMGILNKLNDLAKNNDVDGYDNYIRDLSSNYALNDKYQDHMQERIDNYENLTVPFVADDYLVRHAYKNPNEIYSEISEVAKLKDAKSEVKKSQYFSTFTLRGSYTGGASKGKLEDQKAMNKFIDDSLKKLDTYSWSGYKTLTAYFTNYKVDSSNRVTYDVVFHGYLPNEGDSKNSLPYGKINGTYKGTEKEKIKFSSEGSFDPDGKIVSYEWDFGDGNKSNEENPEHSYDKVGTYTVKLKVTDDKGESSVSTTTAEIKDLSENKLPVIYMHVPKSGALNQKVVFYGKGTYDPDGSIAGYQWDFGDGSDFSSEQNPSHVYTKKGEYTVTLRVMDSSGQMSEKTMKIKITDPVYPIGTEKEPNNSKETASGPIVPGIPVSGTIENTSDQDYFYFDVITPGEVKIDINKLGYGGATWVVYDENNNAVSYATDDGQNLSGKFKADKPGRYYIHLYMFNGSYMPYRINIELEHHHHHH
notes: Fusion of a VHH (sdAb), a linker, Clostridium collagenase H and a His6 tag, expressed in E. coli SHuffle; also called targeted collagenase; anti-HER2-collagenase fusion protein
binding result [4]: no binding
